The test concerns the target T1, His-FliM (E. coli W3110, UniProt P06974 1-334).
T1 sequence (looked up): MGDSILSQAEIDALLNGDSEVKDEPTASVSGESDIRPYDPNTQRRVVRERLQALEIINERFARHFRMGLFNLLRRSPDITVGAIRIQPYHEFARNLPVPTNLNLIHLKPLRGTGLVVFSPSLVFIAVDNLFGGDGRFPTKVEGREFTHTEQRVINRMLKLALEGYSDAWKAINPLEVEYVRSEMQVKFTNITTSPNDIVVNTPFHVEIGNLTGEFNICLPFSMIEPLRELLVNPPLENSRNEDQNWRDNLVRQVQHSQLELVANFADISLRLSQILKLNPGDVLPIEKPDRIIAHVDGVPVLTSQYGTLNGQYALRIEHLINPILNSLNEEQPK
Nature of the test: SPR.

B1: CheY-His (natural protein, E. coli W3110)
chain: ADKELKFLVVDDFSTMRRIVRNLLKELGFNNVEEAEDGVDALNKLQAGGYGFVISDWNMPNMDGLELLKTIRADGAMSALPVLMVTAEAKKENIIAAAQAGASGYVVKPFTAATLEEKLNKIFEKLGM
Molecule B1 registered a dissociation constant (Kd) of 1.63 µM.

B2: AcCheY-His (natural protein, E. coli W3110)
chain: B1 chain
modifications: acetyl-lysine at 91 and 109 (found by LC-MS/MS)
For the molecule B2, binding was characterised by a dissociation constant (Kd) of 9.4 µM.

For the origin of these results see paper PMC2883070 (Molecular Microbiology, 2010).
